In patent US20250186602A1, “HUMANIZED ANTIBODY THAT BONDS TO EVA1 PROTEIN OR FUNCTIONAL FRAGMENT THEREOF, ANTIBODY-DRUG CONJUGATE AND CHIMERIC ANTIGEN RECEPTOR” (CURED INC., priority 2022, published 2025):

Experiments:
hEva1-mouse Fc = assay: Surface plasmon resonance kinetics analysis (BiaCore T200, single-cycle); assay type: binding, human; conditions: SPR, antibody captured 5 nM, analyte hEva1-mouse Fc 1-250 nM, HBS-EP+ pH 7.4
Experimental: The dissociation constants and association constants of the humanized antibodies and the like were analyzed by using surface plasmon resonance (SPR, product name: BiaCore T200 (manufactured by GE healthcare)).
Specifically, first, human IgG capture antibodies were immobilized on a CM5 chip by an amine coupling method. This immobilization was conducted in both reference cells and active cells. Then, the kinetics analysis on the anti-Eval antibody and hEva1 was conducted by a single-cycle method using the following measurement conditions.
• Sample compartment temperature: 10° C. • Running buffer: HBS-EP+buffer, pH 7.4 • Capturing molecule: Human IgG antibody, reference & active cells • Ligand: Various antibodies 5 nM, active cells only • Analyte: hEva1-mouse Fc1, 5, 25, 125, 250 nM, reference & active cells • Regeneration buffer: 3M MgCl2, reference & active cells • 3 cycles of Blanks (Analyte zero concentration)

[1] = test system: Human glioma stem cells (hGIC); assay: Cytotoxicity assay of B2E5-ADC against glioma (MTT); assay type: cell-based
Experimental: Human glioma stem cells (hGIC) were inoculated in a 96-well plate in an amount of 1000 cells per well. […] Then, 5 μl of MTT (5 mg/ml, Wako Pure Chemical) was added to each well, followed by culturing for 2 hours in a CO2 incubator at 37° C. After the culture liquid was discarded, 90 μl of DMSO was added, and after the cells were dissolved, the absorbance (570 nm) was measured by using a benchmark (Bio-Rad).
Note that as a positive control (100%), a measured value in a well in the absence of the antibody was used. In addition, as a negative control (0%), a measured value obtained by adding 5 μl of 1% TritonX100 to a well in the absence of the antibody was used.

Sequence of hEva1-mouse Fc (O60487 27-154 limits assumed): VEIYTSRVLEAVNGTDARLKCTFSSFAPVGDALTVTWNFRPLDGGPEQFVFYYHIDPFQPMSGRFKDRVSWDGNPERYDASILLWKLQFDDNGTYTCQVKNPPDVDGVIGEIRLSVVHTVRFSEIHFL

B1: H2-L2: humanized B2E5-48 IgG1, VH H2 (SEQ ID NO: 13), VL L2 (SEQ ID NO: 7) (antibody, V domains shown)
VH: QVQLVQSGAEVKKPGASVKVSCKASGYTFTNYWMHWVRQAPGQGLEWMGEINPTNGGTDYNEKFQGRVTMTVDKSTSTAYMELSSLRSEDTAVYYCTIYTTALDYWGQGTLVTVSS
VL: EIVLTQSPATLSLSPGERATLSCRASSSVGYMYWYQQKPGQAPRPLIYVTSNRATGIPARFSGSGSGTDYTLTISSLEPEDFAVYYCQQWSSNPPTFGQGTKLEIK
modifications: Variable Region of Heavy Chain 2 (Humanized B2E5-48); Variable Region of Light Chain 2 (Humanized B2E5-48)
In the case of B1, the ka (hEva1-mouse Fc) is reported as 19720 M⁻¹ s⁻¹, the kd (hEva1-mouse Fc) is reported as 0.009201 s⁻¹ and the “cytotoxic activity against hGIC” value [1] is reported as “no cytotoxic activity”.
